Test results taken from US20230322957A1 (ENGMAB SARL, published 2023).
Where a chain is given by its changes, count along the chain named.

Columns and labels:
[1] = molecular target: T1, human BCMA on the cell surface (human, UniProt Q02223 1-184); assay: cell-based or functional assay
T1 sequence (looked up): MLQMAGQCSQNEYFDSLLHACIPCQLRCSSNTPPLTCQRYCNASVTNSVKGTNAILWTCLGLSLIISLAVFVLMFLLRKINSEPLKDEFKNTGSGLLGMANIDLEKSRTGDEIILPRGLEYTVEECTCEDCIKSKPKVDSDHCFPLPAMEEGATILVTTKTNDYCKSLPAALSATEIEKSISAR

[2] = molecular target: T1, human BCMA on the cell surface; assay: cell-based or functional assay; remark: listed apart in the source
[3] = molecular target: T1, human BCMA on the cell surface; assay: cell-based or functional assay; remark: listed apart in the source
[4] = molecular target: T1, human BCMA on the cell surface; assay: cell-based or functional assay; remark: listed apart in the source
[5] = molecular target: T1, human BCMA on the cell surface; assay: cell-based or functional assay; remark: listed apart in the source
[6] = molecular target: T1, human BCMA on the cell surface; assay: cell-based or functional assay; remark: listed apart in the source
[7] = molecular target: recombinant cynomolgus BCMA Fc(kih) (cynomolgus, UniProt A0A2K5UD97 4-51, biotinylated in vivo at the avi-tag at the C-terminus of the Fc knob chain); assay: ratio of the SPR KDs of Table 4, human BCMA as reference
recombinant cynomolgus BCMA Fc(kih), sequence (A0A2K5UD97 entry or part of it): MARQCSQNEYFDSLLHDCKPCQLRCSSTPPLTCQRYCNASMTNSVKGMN
Experimental: Assessment of binding of anti-BCMA antibodies to recombinant BCMA by surface plasmon resonance (SPR) as follow. All SPR experiments were performed on a Biacore T200 at 25° C. with HBS-EP as running buffer (0.01M HEPES pH 7.4, 0.15M NaCl, 3 mM EDTA, 0.005% Surfactant P20, Biacore, Freiburg/Germany). The avidity of the interaction between anti-BCMA antibodies and recombinant BCMA Fc(kih) (human and cynomolgus) was determined. Biotinylated recombinant human and cynomolgus BCMA Fc(kih) were directly coupled on a SA chip following instructions (Biacore, Freiburg/Germany). The immobilization level ranged from 200 to 700 RU. […] The dissociation was monitored for 180 seconds. Bulk refractive index differences were corrected for by subtracting the response obtained on the reference flow cell. Here, the anti-BCMA antibodies were flown over an empty surface previously activated and deactivated as described in the standard amine coupling kit. Apparent kinetic constants were derived using the Biacore T200 Evaluation Software (vAA, Biacore AB, Uppsala/Sweden), to fit rate equations for 1:1 Langmuir binding by numerical integration, despite the bivalency of the interaction for comparison purposes. The affinity of the interaction between anti-BCMA antibodies and recombinant human BCMA Fc(kih) was also determined. Anti-human Fab antibody (GE Healthcare) was directly coupled on a CM5 chip at pH 5.0 using the standard amine coupling kit (Biacore, Freiburg/Germany). The immobilization level was about 6500 RU. […] The dissociation was monitored for 120 seconds. Bulk refractive index differences were corrected for by subtracting the response obtained on reference flow cell. […] Kinetic constants were derived using the Biacore T100 Evaluation Software (vAA, Biacore AB, Uppsala/Sweden), to fit rate equations for 1:1 Langmuir binding by numerical integration (Table 4).

B1: 22-TCBcv (bispecific antibody, human IgG1, kappa, L234A L235A)
heavy 1: not shown
heavy 2: EVQLLESGGGLVQPGGSLRLSCAASGFTFSDNAMGWVRQAPGKGLEWVSAISGPGSSTYYADSVKGRFTISRDNSKNTLYLQMNSLRAEDTAVYYCAKVLGWFDYWGQGTLVTVSSASTKGPSVFPLAPSSKSTSGGTAALGCLVEDYFPEPVTVSWNSGALTSGVHTFPAVLQSSGLYSLSSVVTVPSSSLGTQTYICNVNHKPSNTKVDEKVEPKSCDKTHTCPPCPAPEAAGGPSVFLFPPKPKDTLMISRTPEVTCVVVDVSHEDPEVKFNWYVDGVEVHNAKTKPREEQYNSTYRVVSVLTVLHQDWLNGKEYKCKVSNKALGAPIEKTISKAKGQPREPQVCTLPPSRDELTKNQVSLSCAVKGFYPSDIAVEWESNGQPENNYKTTPPVLDSDGSFFLVSKLTVDKSRWQQGNVFSCSVMHEALHNHYTQKSLSLSPGK
light 1: EIVLTQSPGTLSLSPGERATLSCRASQSVSSYYLAWYQQKPGQAPRLLISGAGSRATGIPDRFSGSGSGTDFTLTISRLEPEDFAVYYCQQYGYPPDFTFGQGTKVEIKRTVAAPSVFIFPPSDRKLKSGTASVVCLLNNFYPREAKVQWKVDNALQSGNSQESVTEQDSKDSTYSLSSTLTLSKADYEKHKVYACEVTHQGLSSPVTKSFNRGEC
light 2: EVQLLESGGGLVQPGGSLRLSCAASGFTFSTYAMNWVRQAPGKGLEWVSRIRSKYNNYATYYADSVKGRFTISRDDSKNTLYLQMNSLRAEDTAVYYCVRHGNFGNSYVSWFAYWGQGTLVTVSSASVAAPSVFIFPPSDEQLKSGTASVVCLLNNFYPREAKVQWKVDNALQSGNSQESVTEQDSKDSTYSLSSTLTLSKADYEKHKVYACEVTHQGLSSPVTKSFNRGEC
[1]
  EC50 redirected T-cell killing of H929 cells (LDH release), Donor 1: 53.2 pM
  EC50 redirected T-cell killing of H929 cells (LDH release), Donor 3: 42.2 pM
  EC50 redirected T-cell killing of H929 cells (LDH release), Donor 4: 23.2 pM
  EC50 redirected T-cell killing of H929 cells (LDH release), Donor 5: 28.9 pM
[2]
  Lysis of JJN-3 cells (%) at 0.1 pM, Experiment 2: 36.5%
  Lysis of JJN-3 cells (%) at 1 pM, Experiment 1: 4.29%
  Lysis of JJN-3 cells (%) at 1 pM, Experiment 2: 24.4%
  Lysis of JJN-3 cells (%) at 10 pM, Experiment 1: 73.6%
  Lysis of JJN-3 cells (%) at 10 pM, Experiment 2: 41.7%
  Lysis of JJN-3 cells (%) at 100 pM, Experiment 1: 56.3%
  Lysis of JJN-3 cells (%) at 100 pM, Experiment 2: 53%
  Lysis of JJN-3 cells (%) at 1000 pM, Experiment 1: 90.5%
  Lysis of JJN-3 cells (%) at 1000 pM, Experiment 2: 94.1%
  Lysis of JJN-3 cells (%) at 10000 pM, Experiment 1: 88%
  Lysis of JJN-3 cells (%) at 10000 pM, Experiment 2: 91.2%
[3]
  EC50 redirected T-cell killing of L363 cells (LDH release), Donor 1: 97.5 pM
  EC50 redirected T-cell killing of L363 cells (LDH release), Donor 2: 27.7 pM
  EC50 redirected T-cell killing of L363 cells (LDH release), Donor 3: 16.5 pM
  EC50 redirected T-cell killing of L363 cells (LDH release), Donor 4: 14.6 pM
  EC50 redirected T-cell killing of L363 cells (LDH release), Donor 5: 56 pM
[4]
  Annexin-V positive JJN-3 cells (%) at 0.1 pM, Experiment 2: 14.8%
  Annexin-V positive JJN-3 cells (%) at 1 pM, Experiment 1: 9.3%
  Annexin-V positive JJN-3 cells (%) at 1 pM, Experiment 2: 15%
  Annexin-V positive JJN-3 cells (%) at 10 pM, Experiment 1: 13.3%
  Annexin-V positive JJN-3 cells (%) at 10 pM, Experiment 2: 15.9%
  Annexin-V positive JJN-3 cells (%) at 100 pM, Experiment 1: 12.5%
  Annexin-V positive JJN-3 cells (%) at 100 pM, Experiment 2: 18.4%
  Annexin-V positive JJN-3 cells (%) at 1000 pM, Experiment 1: 26.1%
  Annexin-V positive JJN-3 cells (%) at 1000 pM, Experiment 2: 27%
  Annexin-V positive JJN-3 cells (%) at 10000 pM, Experiment 1: 22.9%
  Annexin-V positive JJN-3 cells (%) at 10000 pM, Experiment 2: 29.7%
[5]
  EC50 redirected T-cell killing of RPMI-8226 cells (LDH release), Donor 2: 47.6 pM
  EC50 redirected T-cell killing of RPMI-8226 cells (LDH release), Donor 3: 7.6 pM
  EC50 redirected T-cell killing of RPMI-8226 cells (LDH release), Donor 4: 3.2 pM
  EC50 redirected T-cell killing of RPMI-8226 cells (LDH release), Donor 5: 5.5 pM
[6]
  Annexin-V positive patient bone marrow myeloma plasma cells (%) at 10 pM: 14.2%
  Annexin-V positive patient bone marrow myeloma plasma cells (%) at 100 pM: 14.8%
  Annexin-V positive patient bone marrow myeloma plasma cells (%) at 1000 pM: 31%
  Annexin-V positive patient bone marrow myeloma plasma cells (%) at 10000 pM: 51.7%
  Annexin-V positive patient bone marrow myeloma plasma cells (%) at 30000 pM: 55.7%

B2: 42-TCBcv (bispecific antibody, human IgG1, kappa, L234A L235A)
heavy 1: not shown
heavy 2: B1 heavy 2
light 1: B1 light 1 with S31D, Y32E, A35S, S50H, G51S, G53S, S54T, T75A
light 2: B1 light 2
[1]
  EC50 redirected T-cell killing of H929 cells (LDH release), Donor 1: 9.7 pM
  EC50 redirected T-cell killing of H929 cells (LDH release), Donor 3: 11.7 pM
  EC50 redirected T-cell killing of H929 cells (LDH release), Donor 4: 7.2 pM
  EC50 redirected T-cell killing of H929 cells (LDH release), Donor 5: 6.8 pM
[2]
  Lysis of JJN-3 cells (%) at 0.1 pM, Experiment 2: 17.6%
  Lysis of JJN-3 cells (%) at 1 pM, Experiment 1: 40.3%
  Lysis of JJN-3 cells (%) at 1 pM, Experiment 2: 34.9%
  Lysis of JJN-3 cells (%) at 10 pM, Experiment 1: 39%
  Lysis of JJN-3 cells (%) at 10 pM, Experiment 2: 39.4%
  Lysis of JJN-3 cells (%) at 100 pM, Experiment 1: 41.9%
  Lysis of JJN-3 cells (%) at 100 pM, Experiment 2: 55.3%
  Lysis of JJN-3 cells (%) at 1000 pM, Experiment 1: 84%
  Lysis of JJN-3 cells (%) at 1000 pM, Experiment 2: 81.1%
  Lysis of JJN-3 cells (%) at 10000 pM, Experiment 1: 92.9%
  Lysis of JJN-3 cells (%) at 10000 pM, Experiment 2: 90.4%
[3]
  EC50 redirected T-cell killing of L363 cells (LDH release), Donor 1: 15.5 pM
  EC50 redirected T-cell killing of L363 cells (LDH release), Donor 2: 16.7 pM
  EC50 redirected T-cell killing of L363 cells (LDH release), Donor 3: 5.2 pM
  EC50 redirected T-cell killing of L363 cells (LDH release), Donor 4: 2.2 pM
  EC50 redirected T-cell killing of L363 cells (LDH release), Donor 5: 10.6 pM
[4]
  Annexin-V positive JJN-3 cells (%) at 0.1 pM, Experiment 2: 12.8%
  Annexin-V positive JJN-3 cells (%) at 1 pM, Experiment 1: 11.9%
  Annexin-V positive JJN-3 cells (%) at 1 pM, Experiment 2: 13.5%
  Annexin-V positive JJN-3 cells (%) at 10 pM, Experiment 1: 12.3%
  Annexin-V positive JJN-3 cells (%) at 10 pM, Experiment 2: 13.6%
  Annexin-V positive JJN-3 cells (%) at 100 pM, Experiment 1: 8.62%
  Annexin-V positive JJN-3 cells (%) at 100 pM, Experiment 2: 14.4%
  Annexin-V positive JJN-3 cells (%) at 1000 pM, Experiment 1: 16.8%
  Annexin-V positive JJN-3 cells (%) at 1000 pM, Experiment 2: 21.7%
  Annexin-V positive JJN-3 cells (%) at 10000 pM, Experiment 1: 24.8%
  Annexin-V positive JJN-3 cells (%) at 10000 pM, Experiment 2: 26.9%
[5]
  EC50 redirected T-cell killing of RPMI-8226 cells (LDH release), Donor 2: 383 pM
  EC50 redirected T-cell killing of RPMI-8226 cells (LDH release), Donor 3: 18.7 pM
  EC50 redirected T-cell killing of RPMI-8226 cells (LDH release), Donor 4: 3.5 pM
  EC50 redirected T-cell killing of RPMI-8226 cells (LDH release), Donor 5: 1.5 pM
[6]
  Annexin-V positive patient bone marrow myeloma plasma cells (%) at 10 pM: 19.6%
  Annexin-V positive patient bone marrow myeloma plasma cells (%) at 100 pM: 10.5%
  Annexin-V positive patient bone marrow myeloma plasma cells (%) at 1000 pM: 30%
  Annexin-V positive patient bone marrow myeloma plasma cells (%) at 10000 pM: 39.9%
  Annexin-V positive patient bone marrow myeloma plasma cells (%) at 30000 pM: 52.5%

B3: Mab 21 IgG (antibody, V domains shown)
VH: EVQLLESGGGLVQPGGSLRLSCAASGFTFSDNAMGWVRQAPGKGLEWVSAISGPGSSTYYADSVKGRFTISRDNSKNTLYLQMNSLRAEDTAVYYCAKVLGWFDYWGQGTLVTVSS
VL: EIVLTQSPGTLSLSPGERATLSCRASQSVSEYYLAWYQQKPGQAPRLLIEHASTRATGIPDRFSGSGSGTDFTLTISRLEPEDFAVYYCQQYGYPPDFTFGQGTKVEIK
notes: Tested as human IgG1; also called antibody 21
[7]
  Affinity cyno/hu gap (KD cynomolgus BCMA / KD human BCMA): 9.3 fold

B4: Mab 22 IgG (antibody, V domains shown)
VH: B3 VH
VL: B3 VL with E31S, E50S, H51G, S53G, T54S
notes: Tested as human IgG1; also called antibody 22; clone 22
[7]
  Affinity cyno/hu gap (KD cynomolgus BCMA / KD human BCMA): 15.4 fold
